From US20200283478A1 (Genentech, published 2020) come the findings set out here.

In general, Kd refers to the concentration at which binding is half-saturated. The low end stands for a tighter complex, the high end for a looser complex. The IC50 is the concentration that inhibits the measured activity by half.

Bridge positions count the residues as written; N and C are the ends. Square brackets hold non-standard residues; d marks the D form. Primed or numbered codes have the meaning given here. Ends that are not written are not given here. hArg = N=C(N)NCCCC[C@H](N)C(=O)O; Hyp′ = 3-hydroxyproline Where only a bound is given, the exact number is not on record here.

The target of test [1] is T1, proprotein convertase subtilisin/kexin type 9 (PCSK9) (human, UniProt Q8NBP7 31-692).
T1 construct: His-tagged full-length PCSK9 in TR-FRET and SPR, biotinylated in phage ELISA; secreted protein is autoprocessed (prodomain plus catalytic/CRD chain starting at S153); also called rec.PCSK9; His-PCSK9
T1 sequence (Q8NBP7 other isoform, or with tags, fused parts or gaps limits assumed): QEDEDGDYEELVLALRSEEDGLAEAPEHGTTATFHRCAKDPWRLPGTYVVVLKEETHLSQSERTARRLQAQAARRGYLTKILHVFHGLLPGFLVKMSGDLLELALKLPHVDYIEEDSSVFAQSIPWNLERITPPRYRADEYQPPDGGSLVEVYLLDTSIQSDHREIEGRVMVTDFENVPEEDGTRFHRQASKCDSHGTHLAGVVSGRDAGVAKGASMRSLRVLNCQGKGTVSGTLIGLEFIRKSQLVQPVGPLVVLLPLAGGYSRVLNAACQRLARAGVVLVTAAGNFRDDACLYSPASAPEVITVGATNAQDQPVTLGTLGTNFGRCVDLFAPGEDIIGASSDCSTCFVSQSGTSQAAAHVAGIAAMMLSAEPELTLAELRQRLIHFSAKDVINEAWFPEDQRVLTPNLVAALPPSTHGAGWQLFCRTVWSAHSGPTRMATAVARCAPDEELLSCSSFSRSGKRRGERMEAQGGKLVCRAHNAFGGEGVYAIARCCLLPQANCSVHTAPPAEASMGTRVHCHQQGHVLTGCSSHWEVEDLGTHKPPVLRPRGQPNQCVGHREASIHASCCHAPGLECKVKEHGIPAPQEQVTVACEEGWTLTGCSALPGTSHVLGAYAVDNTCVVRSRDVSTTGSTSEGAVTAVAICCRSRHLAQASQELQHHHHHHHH
Briefly: SPR.

Test [2] has as its target T2, PCSK9Δhelix (human PCSK9 lacking the P' helix, His-tagged) (human, UniProt Q8NBP7 31-152; Q8NBP7 168-692).
T2 construct: Construct M1-Q692 with an engineered TEV site (Y166 and R167 deleted, ENLYFQS inserted between R165 and A168); also called His-PCSK9Δhelix; C-terminal (His)8-tagged PCSK9Δhelix
Nature of the test: TR-FRET competition; His-PCSK9Δhelix with Ab20 as competitor ligand. For orientation: TR-FRET usually uses a lanthanide donor and a delayed reading to cut background.

Test [3] addresses T3, His-tagged, full-length human PCSK9 (proprotein convertase subtilisin/kexin type 9) (human, UniProt A8T644 31-152; Q8NBP7 153-692).
T3 construct: also called His-PCSK9; C-terminal (His)8-tagged PCSK9
Briefly: TR-FRET competition; His-PCSK9 with EGF(A)-Fc as competitor ligand.

For test [4], the target named is T4, PCSK9Δhelix (human, Chemically biotinylated in the phage ELISAs; the site is not given.).
T4 construct: construct M1-Q692 with engineered TEV site, cleaved by TEV; also called His-PCSK9Δhelix; open groove PCSK9Δhelix
T4 sequence (prodomain, as listed by the source mutant limits assumed, chain 1 of 2): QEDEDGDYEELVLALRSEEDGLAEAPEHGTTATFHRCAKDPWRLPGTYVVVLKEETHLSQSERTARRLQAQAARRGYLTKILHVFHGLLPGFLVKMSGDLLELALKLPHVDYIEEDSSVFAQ
T4 sequence (chain, as listed by the source mutant limits assumed, chain 2 of 2): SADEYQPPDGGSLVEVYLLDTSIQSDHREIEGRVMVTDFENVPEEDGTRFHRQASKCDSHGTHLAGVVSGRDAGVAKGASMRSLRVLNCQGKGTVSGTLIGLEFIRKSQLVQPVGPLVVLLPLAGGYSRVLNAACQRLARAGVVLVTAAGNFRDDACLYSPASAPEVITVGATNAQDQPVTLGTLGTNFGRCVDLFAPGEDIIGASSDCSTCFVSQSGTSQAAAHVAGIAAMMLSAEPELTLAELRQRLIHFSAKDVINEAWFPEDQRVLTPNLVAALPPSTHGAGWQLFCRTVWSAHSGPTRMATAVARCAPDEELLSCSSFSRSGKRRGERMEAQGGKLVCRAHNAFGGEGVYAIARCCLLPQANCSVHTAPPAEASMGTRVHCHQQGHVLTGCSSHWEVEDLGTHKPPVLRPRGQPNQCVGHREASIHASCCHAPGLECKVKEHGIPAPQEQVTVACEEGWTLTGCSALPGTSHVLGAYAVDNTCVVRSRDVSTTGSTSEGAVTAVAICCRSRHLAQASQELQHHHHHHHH
Briefly: phage competition ELISA against phage-displayed K9gvpep4 (ΦK9gvpep4). A general note: In an ELISA, binding on a coated surface is turned into a signal by an enzyme label.

Test [5] concerns the target T4, PCSK9Δhelix. Briefly: phage competition ELISA against phage-displayed Pep2-8 (Φpep2-8).
In test [6] the target is T4, PCSK9Δhelix. Nature of the test: phage competition ELISA: synthetic peptide against its phage-displayed counterpart.
The target of test [7] is T1, proprotein convertase subtilisin/kexin …. Briefly: phage spot ELISA; first of two rows with this extension.
The target in test [8] is T4, PCSK9Δhelix. Described as above.
For test [9], the target named is T1, proprotein convertase subtilisin/kexin …. Briefly: phage spot ELISA; second of two rows with this extension.
Test [10] concerns the target T4, PCSK9Δhelix. The description is as above.
Test [11] concerns the target T4, PCSK9Δhelix. Briefly: Ab20 TR-FRET competition and SPR.
The target in test [12] is T5, PCSK9 (proprotein convertase subtilisin/kexin type 9), His-tagged, full-length (human, UniProt Q8NBP7 31-692).
T5 construct: Captured by the His tag (SPR Methods 1 and 2), amine-coupled (Method 3), or His-tagged in TR-FRET; also called His-PCSK9
T5 sequence (Q8NBP7 31-692 limits assumed): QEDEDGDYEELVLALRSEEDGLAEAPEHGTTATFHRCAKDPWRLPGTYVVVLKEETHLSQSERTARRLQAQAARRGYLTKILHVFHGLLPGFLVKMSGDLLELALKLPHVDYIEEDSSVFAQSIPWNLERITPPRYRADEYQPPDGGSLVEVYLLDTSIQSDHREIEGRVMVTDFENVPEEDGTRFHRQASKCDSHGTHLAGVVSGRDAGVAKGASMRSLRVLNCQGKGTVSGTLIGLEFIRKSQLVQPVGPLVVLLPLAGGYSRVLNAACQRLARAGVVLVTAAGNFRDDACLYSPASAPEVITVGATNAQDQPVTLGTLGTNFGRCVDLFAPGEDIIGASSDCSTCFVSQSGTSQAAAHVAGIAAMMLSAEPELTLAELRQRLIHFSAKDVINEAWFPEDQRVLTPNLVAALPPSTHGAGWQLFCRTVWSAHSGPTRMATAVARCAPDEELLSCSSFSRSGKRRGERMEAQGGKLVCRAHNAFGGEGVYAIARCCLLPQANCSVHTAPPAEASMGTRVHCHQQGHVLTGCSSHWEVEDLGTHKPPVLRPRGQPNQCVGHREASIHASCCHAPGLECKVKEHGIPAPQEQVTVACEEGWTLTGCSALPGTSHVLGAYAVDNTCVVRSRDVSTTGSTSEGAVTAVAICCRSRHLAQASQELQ
Briefly: TR-FRET competition; competitor EGF(A)-Fc binding to His-PCSK9.

Test [13] addresses T5, PCSK9 (proprotein convertase …). Nature of the test: SPR, Method 1 (Biacore T100, His-tagged target captured on NTA chip).
The target of test [14] is T6, PCSK9Δhelix (human, UniProt Q8NBP7 31-152; Q8NBP7 168-692).
T6 construct: Made by TEV cleavage of human PCSK9 M1-Q692 with an engineered TEV site; The new N-terminus of the catalytic domain is S-A168; also called His-PCSK9Δhelix; PCSK9 lacking the P' helix
T6 sequence (Q8NBP7 31-152, stated change not applied, chain 1 of 2): as the sequence (prodomain, as listed by the source mutant limits assumed, chain 1 of 2) above
T6 sequence (Q8NBP7 other isoform, or with tags, fused parts or gaps mutant, chain 2 of 2): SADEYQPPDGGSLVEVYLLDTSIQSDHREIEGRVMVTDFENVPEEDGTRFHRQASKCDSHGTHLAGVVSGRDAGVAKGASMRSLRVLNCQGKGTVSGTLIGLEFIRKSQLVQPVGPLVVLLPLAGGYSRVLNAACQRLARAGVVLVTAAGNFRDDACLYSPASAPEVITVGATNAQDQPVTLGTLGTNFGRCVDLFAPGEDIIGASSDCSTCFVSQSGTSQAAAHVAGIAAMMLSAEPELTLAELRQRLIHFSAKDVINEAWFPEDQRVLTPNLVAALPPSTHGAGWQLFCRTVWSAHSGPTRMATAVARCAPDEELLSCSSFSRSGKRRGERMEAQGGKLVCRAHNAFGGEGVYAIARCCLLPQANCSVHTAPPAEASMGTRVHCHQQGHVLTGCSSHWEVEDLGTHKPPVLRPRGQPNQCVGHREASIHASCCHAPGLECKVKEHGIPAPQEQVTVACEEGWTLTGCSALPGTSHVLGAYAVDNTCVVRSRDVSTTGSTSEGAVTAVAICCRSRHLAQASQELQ
The description is as above.

Test [15] concerns the target T6, PCSK9Δhelix. Nature of the test: TR-FRET competition; competitor Ab20 binding to His-PCSK9Δhelix.
Test [16] has as its target T1, proprotein convertase subtilisin/kexin …. Briefly: cell-based or functional assay.
For test [17], the target named is T5, PCSK9 (proprotein convertase …). Nature of the test: SPR, Method 2 (Biacore T100, NTA capture, single cycle kinetics). Background: SPR reads the build-up and loss of mass on a sensor chip optically.
Test [18] addresses T6, PCSK9Δhelix. Described as above.
For test [19], the target named is T4, PCSK9Δhelix. Nature of the test: SPR.
The target of test [20] is T1, proprotein convertase subtilisin/kexin …. Briefly: TR-FRET competition (Table 11).

T2 sequence (Q8NBP7 31-152, stated change not applied, chain 1 of 2): as the sequence (prodomain, as listed by the source mutant limits assumed, chain 1 of 2) above
T2 sequence (Q8NBP7 other isoform, or with tags, fused parts or gaps mutant, chain 2 of 2): as the sequence (chain, as listed by the source mutant limits assumed, chain 2 of 2) above
T3 sequence (A8T644 31-152, chain 1 of 2): as the sequence (prodomain, as listed by the source mutant limits assumed, chain 1 of 2) above
T3 sequence (A8T644 other isoform, or with tags, fused parts or gaps, chain 2 of 2): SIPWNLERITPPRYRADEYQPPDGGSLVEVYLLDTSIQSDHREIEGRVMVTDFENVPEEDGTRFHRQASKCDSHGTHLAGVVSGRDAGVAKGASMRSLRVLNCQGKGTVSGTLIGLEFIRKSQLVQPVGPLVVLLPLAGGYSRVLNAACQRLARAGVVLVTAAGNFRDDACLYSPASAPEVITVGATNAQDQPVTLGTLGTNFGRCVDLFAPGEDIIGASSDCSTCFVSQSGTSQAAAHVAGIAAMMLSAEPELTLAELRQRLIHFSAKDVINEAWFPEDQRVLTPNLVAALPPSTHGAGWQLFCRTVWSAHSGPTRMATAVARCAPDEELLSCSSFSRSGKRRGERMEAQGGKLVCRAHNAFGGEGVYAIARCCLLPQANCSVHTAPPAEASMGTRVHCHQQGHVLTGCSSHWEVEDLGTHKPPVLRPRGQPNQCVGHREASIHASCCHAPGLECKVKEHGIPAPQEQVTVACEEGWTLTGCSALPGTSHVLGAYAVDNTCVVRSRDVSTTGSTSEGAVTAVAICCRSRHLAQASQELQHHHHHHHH

B1: Compound 228 (peptide)
peptide: Ac-SFAFPGWNLV[hArg]IGLLR-NH2
SMILES: CC[C@H](C)[C@H](NC(=O)[C@H](CCCCNC(=N)N)NC(=O)[C@@H](NC(=O)[C@H](CC(C)C)NC(=O)[C@H](CC(N)=O)NC(=O)[C@H](Cc1c[nH]c2ccccc12)NC(=O)CNC(=O)[C@@H]1CCCN1C(=O)[C@H](Cc1ccccc1)NC(=O)[C@H](C)NC(=O)[C@H](Cc1ccccc1)NC(=O)[C@H](CO)NC(C)=O)C(C)C)C(=O)NCC(=O)N[C@@H](CC(C)C)C(=O)N[C@@H](CC(C)C)C(=O)N[C@@H](CCCNC(=N)N)C(N)=O
With B1, the Kd in test [1] is 2800 nM.
In the case of Ac-SGCFI[Hyp′]WNLQRIGLLC-NH2 (disulfide 3-16 (inferred), Has two Cys (positions 3 and 16)) [Compound 242: Ac-SG-CFI(Hyp)WNLQRIGLLC-NH2], the IC50 in test [2] is 31000 nM; in test [3], ≥ 50000 nM.
Turning to Ac-TVFTSWEEYLDWVGSGDLMPWNLVRIGLLR-NH2 (also called Pep2-8p7; Pep2-8_K9gvpep7) [Compound 20], the IC50 with PCSK9Δhelix [4] is 5.99 nM; in the test with PCSK9Δhelix [5], 1.75 nM.

B2: K9gvpep7 (peptide)
peptide: SGDLMPWNLVRIGLLR
notes: synthetic; Compound 20 = Pep2-8_K9gvpep7
The molecule B2 displayed an IC50 with PCSK9Δhelix [6] of 914 nM.
Consider TAFTSWEEYLDWVGSGVLWNHSRI [SEQ ID NO 308], for which the ELISA is 2.74 in test [7], 2.82 in the test with PCSK9Δhelix [8], 3 in test [9] and 2.91 with PCSK9Δhelix [10]. For the same molecule, the s/n ratio in test [7] worked out at 24.9; in the test with PCSK9Δhelix [8], 26.4; in test [9], 29.7; with PCSK9Δhelix [10], 31.3.
Regarding Ac-WNLVRIGLLR-NH2 [Compound 53], the “fold reduction of binding affinity on elimination of Pro4” value with PCSK9Δhelix [11] turned out to be 10 fold.

B3: Compound 19 (peptide)
peptide: Ac-TVFTSWEEYLDWVGSGCRLPWNLQRIGLPC-NH2
modifications: disulfide 17-30 (inferred)
notes: Two Cys, disulfide-cyclized; also called Pep2-8p4; Pep2-8_K9gvpep4
For B3, the IC50 in test [12] was 9 nM; with PCSK9Δhelix [15], 2 nM. The values for the Kd (in test [13]; with PCSK9Δhelix [14]) were 2.07 nM and 0.0989 nM, respectively.

B4: K9gvpep4 (peptide)
peptide: SGCRLPWNLQRIGLPC
modifications: not fully specified (bridges); cysteine pairing not given here
notes: synthetic; Compound 19 = Pep2-8_K9gvpep4, the two N-terminal residues of K9gvpep4 being the SG of the GSG linker
Take B4: the IC50 in the test with PCSK9Δhelix [6] is 544 nM.
Ac-TVFTSWEEYLDWVGSGCRLPWNLQRIGLPC-NH2 (disulfide 17-30 (inferred), also called Pep2-8p4; Pep2-8_K9gvpep4): in test [16], the “concentration restoring LDLR levels on HepG2 cells to 50% (EC50)” value was ~500 nM. The results for the IC50 in the test with PCSK9Δhelix [4] and in the test with PCSK9Δhelix [5] were 5.65 nM and 2.92 nM, respectively.

B5: Compound 2 (peptide)
peptide: Ac-TVFTSWEEYLDWVGSGCWNLKRIGSQGC-NH2
modifications: disulfide 17-28
SMILES: CC[C@H](C)[C@@H]1NC(=O)[C@H](CCCNC(=N)N)NC(=O)[C@H](CCCCN)NC(=O)[C@H](CC(C)C)NC(=O)[C@H](CC(N)=O)NC(=O)[C@H](Cc2c[nH]c3ccccc23)NC(=O)[C@@H](NC(=O)CNC(=O)[C@H](CO)NC(=O)CNC(=O)[C@@H](NC(=O)[C@H](Cc2c[nH]c3ccccc23)NC(=O)[C@H](CC(=O)O)NC(=O)[C@H](CC(C)C)NC(=O)[C@H](Cc2ccc(O)cc2)NC(=O)[C@H](CCC(=O)O)NC(=O)[C@H](CCC(=O)O)NC(=O)[C@H](Cc2c[nH]c3ccccc23)NC(=O)[C@H](CO)NC(=O)[C@@H](NC(=O)[C@H](Cc2ccccc2)NC(=O)[C@@H](NC(=O)[C@@H](NC(C)=O)[C@@H](C)O)C(C)C)[C@@H](C)O)C(C)C)CSSC[C@@H](C(N)=O)NC(=O)CNC(=O)[C@H](CCC(N)=O)NC(=O)[C@H](CO)NC(=O)CNC1=O
notes: Disulfide C17-C28
With B5, the values for the IC50 (in test [12]; in the test with PCSK9Δhelix [15]) were 110 nM and 4 nM, respectively. The Kd in test [17] was 30.3 nM; in the test with PCSK9Δhelix [18], 1.87 nM.

B6: Compound 23 (peptide)
peptide: Ac-SPCRVGYTPC-NH2
modifications: disulfide 3-10
SMILES: CC(=O)N[C@@H](CO)C(=O)N1CCC[C@H]1C(=O)N[C@H]1CSSC[C@@H](C(N)=O)NC(=O)[C@@H]2CCCN2C(=O)[C@H]([C@@H](C)O)NC(=O)[C@H](Cc2ccc(O)cc2)NC(=O)CNC(=O)[C@H](C(C)C)NC(=O)[C@H](CCCNC(=N)N)NC1=O
notes: Two Cys
Consider B6, for which the Kd was 5740 nM in [17] and 754 nM with PCSK9Δhelix [18].
As to Ac-WNLV[hArg]IGLLR-NH2 [Compound 192], in the test with PCSK9Δhelix [19], the “fold improvement of binding affinity by homo-arginine substitution (against Compound 53)” value was 14 fold.

B7: Compound 227 (peptide)
peptide: Ac-ESFPGWNLV[hArg]IGLLR-NH2
SMILES: CC[C@H](C)[C@H](NC(=O)[C@H](CCCCNC(=N)N)NC(=O)[C@@H](NC(=O)[C@H](CC(C)C)NC(=O)[C@H](CC(N)=O)NC(=O)[C@H](Cc1c[nH]c2ccccc12)NC(=O)CNC(=O)[C@@H]1CCCN1C(=O)[C@H](Cc1ccccc1)NC(=O)[C@H](CO)NC(=O)[C@H](CCC(=O)O)NC(C)=O)C(C)C)C(=O)NCC(=O)N[C@@H](CC(C)C)C(=O)N[C@@H](CC(C)C)C(=O)N[C@@H](CCCNC(=N)N)C(N)=O
For B7, in test [20], the “fold lower inhibitory activity against Compound 229” value is ~3 fold.
